From paper PMC7919409, “Crystal structures of adenylylated and unadenylylated PII protein GlnK from Corynebacterium glutamicum” (Acta Crystallographica. Section D, Structural Biology, 2021)

Assays:
[1] = biological target: the molecule itself; assay: crystal structure; unGlnK, 2.2 Å, space group P4(3)2(1)2, one trimer per asymmetric unit; sitting drop, 292 K, 2.0 M ammonium sulfate, 5%(v/v) 2-propanol
[2] = biological target: the molecule itself; assay: crystal structure; adGlnK, 1.8 Å, space group P3(2), six chains per asymmetric unit; hanging drop, 292 K, MgCl2, CaCl2, MOPS/HEPES pH 7.1, MPD, PEG 1000, PEG 3350

B1: unmodified unadenylylated GlnK from Corynebacterium glutamicum (natural protein, C. glutamicum)
chain: SLHACRMKLITAIVKPFTLTDIKDALEQAGVQGMTVTETQGFGQQKGHTEVYRGAEYAVDFVPKVKIEVIISDAQAEEVINIIVETARTGKVGDGKVWMTNIEELVRVRTGERGEAAL
notes: not part of GlnK; PII protein GlnK, Corynebacterium glutamicum, UniProt Q79VF2; each subunit spans 112 residues; The His tag was cut off with thrombin; Homotrimer; also called unGlnK; UnGlnK; source: E. coli BL21(DE3), purified (HisTrap FF, thrombin cleavage of the His tag, Superdex 75 size-exclusion chromatography); not shown: His tag, N-terminal, cleaved
[1]
  stoichiometry N: 3

B2: adenylylated GlnK from Corynebacterium glutamicum (natural protein, C. glutamicum)
chain: MKLITAIVKPFTLTDIKDALEQAGVQGMTVTETQGFGQQKGHTEVYRGAEYAVDFVPKVKIEVIISDAQAEEVINIIVETARTGKVGDGKVWMTNIEELVRVRTGERGEAAL
modifications: adenylylated Tyr51 (AMP moiety covalently linked to the hydroxyl group of Tyr51); almost fully adenylylated by mass spectrometry
notes: PII protein GlnK, Corynebacterium glutamicum, UniProt Q79VF2; untagged (stop codon inserted before the Xa-Strep stretch of the vector); Homotrimer; also called adGlnK; AdGlnK
[2]
  stoichiometry N: 3
